Source: patent publication US5633145, “TNFα receptor-derived binding protein” (The Mathilda and Terence Kennedy Institute of Rheumatology, dated 1997)

How the values were obtained:
[1] = target: T1, recombinant human TNFβ (human, UniProt P01374); experiment: competition with 1 nM 125I-TNFα on COS-7 cells transfected with the TNFR cDNA; competitor 125I-TNFα
T1 sequence: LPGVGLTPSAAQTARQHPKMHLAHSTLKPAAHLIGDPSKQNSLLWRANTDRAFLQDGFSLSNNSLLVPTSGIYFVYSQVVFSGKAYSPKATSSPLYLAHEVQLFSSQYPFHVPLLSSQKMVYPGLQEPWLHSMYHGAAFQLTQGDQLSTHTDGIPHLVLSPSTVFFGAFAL
Method: (§1) COS cells transfected with the TNFα receptor cDNA (prTNFR, 1300 bp EcoRI fragment) were incubated for 24 hours and then seeded into six well tissue culture plates (Nunc) at 4.5 ×10^8 cells per well. The cells were incubated for a further 48 hours and then receptor expression was quantitated by radioligand binding for 2 hours at 4° C. […] Binding data was analysed by the method of Scatchard (14).

[2] = target: recombinant human TNFα (human, UniProt P01375, radioiodinated (125I, Iodogen method) in the radioligand binding assays; unlabelled as competitor and in the cytotoxicity assays); experiment: radioligand binding of 125I-TNFα to COS cells transfected with prTNFR, Scatchard analysis, 4 °C
Method: as §1
The resulting plasmid was transfected into COS cells which were analyzed for TNF receptor expression after three days.

B1: recombinant human TNFα 55 kD receptor expressed in COS-7 cells from plasmid prTNFR (receptor)
chain: DSVCPQGKYIHPQNNSICCTKCHKGTYLYNDCPGPGQDTDCRECESGSFTASENHLRHCLSCSKCRKEMGQVEISSCTVDRDTVCGCRKNQYRHYWSENLFQCFNCSLCLNGTVHLSCQEKQNTVCTCHAGFFLRENECVSCSNCKKSLECTKLCLPQIENVKGTEDSGTTVLLPLVIFFGLCLLSLLFIGLMYRYQRWKSKLYSIVCGKSTPEKEGELEGTTTKPLAPNPSFSPTPGFTPTLGFSPVPSSTFTSSSTYTPGDCPNFAAPRREVAPPYQGADPILATALASDPIPNPLQKWEDSAHKPQSLDTDDPRTLYAVVENVPPLRWKEF
binding result [1]: binds | Ka [2]: 2.5e+09 M⁻¹
